The values below come from paper PMC9181795, “Ibuprofen Favors Binding of Amyloid-β Peptide to Its Depot, Serum Albumin” (International Journal of Molecular Sciences, 2022).

One test concerns HSA–Aβ interaction. Also noted: method as in 5 sources, ref [12] = [12]; PMID 30685090; doi:10.1016/j.bbrc.2019.01.081; 12. Litus E.A. Kazakov A.S. Sokolov A.S. Nemashkalova E.L. Galushko E.I. Dzhus U.F. Marchenkov V.V. Galzitskaya O.V. Permyakov E.A. Permyakov S.E. The binding of monomeric amyloid beta peptide to seru ||| ref [12],[13] = [12]; PMID 30685090; doi:10.1016/j.bbrc.2019.01.081; 12. Litus E.A. Kazakov A.S. Sokolov A.S. Nemashkalova E.L. Galushko E.I. Dzhus U.F. Marchenkov V.V. Galzitskaya O.V. Permyakov E.A. Permyakov S.E. The binding of monomeric amyloid beta peptide to seru || [13]; PMID 34072751; doi:10.3390/ijms22115896; 13. Litus E.A. Kazakov A.S. Deryusheva E.I. Nemashkalova E.L. Shevelyova M.P. Nazipova A.A. Permyakova M.E. Raznikova E.V. Uversky V.N. Permyakov S.E. Serotonin promotes serum albumin interaction with ||| ref [7] = [7]; PMID 10347147; doi:10.1074/jbc.274.23.15990; 7. Bohrmann B. Tjernberg L. Kuner P. Poli S. Levet-Trafit B. Naslund J. Richards G. Huber W. Dobeli H. Nordstedt C. Endogenous proteins controlling amyloid beta-peptide polymerization. Possible implic ||| ref [14] = [14]; PMID 29409811; doi:10.1016/j.jmb.2018.01.008; 14. Bode D.C. Stanyon H.F. Hirani T. Baker M.D. Nield J. Viles J.H. Serum albumin’s protective inhibition of amyloid-β fiber formation is suppressed by cholesterol, fatty acids and warfarin J. Mol. Bi ||| ref [13] = [13]; PMID 34072751; doi:10.3390/ijms22115896; 13. Litus E.A. Kazakov A.S. Deryusheva E.I. Nemashkalova E.L. Shevelyova M.P. Nazipova A.A. Permyakova M.E. Raznikova E.V. Uversky V.N. Permyakov S.E. Serotonin promotes serum albumin interaction with. As to conditions: cited from earlier work; for effect on HSA affinity toward monomeric Aβ: ref [12],[13]; for effect of HSA ligand on HSA–Aβ interaction: ref [14].

The target in test [1] is A21G mutant of amyloid-β peptide 1-40, Flemish variant of Aβ40 (human). The test can be described thus: SPR; as a1, but with 100 uM ibuprofen (IBU) in the running buffer: Aβ immobilised by amine coupling and washed to monomer; analyte 0.5-8 uM HSA; 25 °C; 20 mM Tris-HCl, 140 mM NaCl, […] KCl, 1 mM MgCl2, […] CaCl2, pH 7.4; heterogeneous ligand model (two ligand populations L1 and L2). In general terms: In SPR one partner is held on a chip, and binding of the other changes the refractive index at the surface.

For test [2] the target is unchanged. In words: SPR; Aβ immobilised by amine coupling on a ProteOn GLH chip (6000-9000 RU), non-covalently bound Aβ washed off (2% SDS, 100 mM HCl, 20 mM EDTA pH 8.0 with 1% SDS) to leave monomeric Aβ; analyte 0.5-8 uM HSA; no IBU; 25 °C; 20 mM Tris-HCl, 140 mM NaCl, […] KCl, 1 mM MgCl2, […] CaCl2, pH 7.4; heterogeneous ligand model (two ligand populations L1 and L2).

Entries after “also recorded” stand apart in the source; their conditions may differ.

In the case of `CCCCC/C=C\C/C=C\C/C=C\C/C=C\CCCC(=O)O` [arachidonic acid, arachidonic], the “effect on HSA affinity toward monomeric Aβ” value in the test with HSA–Aβ interaction is “enhance HSA affinity toward monomeric Aβ”.

As to `CC(C)CCC[C@@H](C)[C@H]1CC[C@H]2[C@@H]3CC=C4C[C@@H](O)CC[C@]4(C)[C@H]3CC[C@]12C` [cholesterol], in the test with HSA–Aβ interaction, the “effect of HSA ligand on HSA–Aβ interaction” value was “exert the opposite effect; also recorded: act in the opposite direction”.

In the case of `CCCCC/C=C\C/C=C\CCCCCCCC(=O)O` [linoleic acid], the “effect on HSA affinity toward monomeric Aβ” value in the test on HSA–Aβ interaction is given as “enhance HSA affinity toward monomeric Aβ”.

With `NCCc1c[nH]c2ccc(O)cc12` [serotonin], the “effect on HSA affinity toward monomeric Aβ” value in the test on HSA–Aβ interaction was “enhance HSA affinity toward monomeric Aβ”.

`N[C@@H](Cc1c[nH]c2ccccc12)C(=O)O` [tryptophan]: in the test on HSA–Aβ interaction (ref [13]), the “effect on the HSA–Aβ40/Aβ42 equilibrium” value was “does not affect the HSA–Aβ40/Aβ42 equilibrium”.

Consider `CC(=O)CC(c1ccccc1)c1c(O)c2ccccc2oc1=O` (stereo not shown) [warfarin], for which, in the test with HSA–Aβ interaction, the “effect of HSA ligand on HSA–Aβ interaction” value was “exert the opposite effect; also recorded: act in the opposite direction”.

Turning to “human serum albumin (from UniProt P02768 25-609) (natural protein)”, in test [1], the Kd1 (ligand population L1) turned out to be 8.2 pM, the ka1 (ligand population L1) was found to be 25000 M⁻¹ s⁻¹, the kd1 (ligand population L1) was found to be 2e-07 s⁻¹ and the kd2 (ligand population L2) turned out to be 1.03e-06 s⁻¹. For the same molecule, in test [2], the Kd2 (ligand population L2) is 670 pM, the ka1 (ligand population L1) stood at 30000 M⁻¹ s⁻¹ and the kd2 (ligand population L2) was found to be 1.8e-06 s⁻¹.
